Results reported in paper PMC6487875 (Biochemistry, 2018).
Changes are numbered by the printed parent chain. Names and notes keep the numbering of the source. Values joined by “and” are separate entries in the source; they are usually repeats but may differ in a detail not shown here. Equal values may be shown once.

B1: wild type glutamate oxaloacetate transaminase 1 (WT-GOT1) (enzyme, human, UniProt P17174-1 1-413, looked up)
chain: MAPPSVFAEVPQAQPVLVFKLTADFREDPDPRKVNLGVGAYRTDDCHPWVLPVVKKVEQKIANDNSLNHEYLPILGLAEFRSCASRLALGDDSPALKEKRVGGVQSLGGTGALRIGADFLARWYNGTNNKNTPVYVSSPTWENHNAVFSAAGFKDIRSYRYWDAEKRGLDLQGFLNDLENAPEFSIVVLHACAHNPTGIDPTPEQWKQIASVMKHRFLFPFFDSAYQGFASGNLERDAWAIRYFVSEGFEFFCAQSFSKNFGLYNERVGNLTVVGKEPESILQVLSQMEKIVRITWSNPPAQGARIVASTLSNPELFEEWTGNVKTMADRILTMRSELRARLEALKTPGTWNHITDQIGMFSFTGLNPKQVEYLVNEKHIYLLPSGRINVSGLTTKNLDYVATSIHEAVTKIQ
B2: GOT1 T110A mutant (enzyme, human, UniProt P17174-1 1-413, looked up)
chain: B1 chain with T110A
B3: GOT1 S256A mutant (enzyme, human, UniProt P17174-1 1-413, looked up)
chain: B1 chain with S256A

Target: the molecule itself
Test: SEC

Row | Protein | stoichiometry N
1 | B1 | 2 and 4
2 | B2 | 2
3 | B3 | 2
